Here are results for one molecule from patent US20040038338A1, “Influence of LRP cytoplasmic domain on Abeta production” (priority 2001, published 2004).

Experiment [1] relates to APP processing in CHO 13-5-1 cells. Description: Transient expression of LRP-CT constructs in LRP deficient CHO 13-5-1 cells, APP-CTF and APPs by immunoblotting. Conditions: LRP−/− CHO 13-5-1 cells; compared to control levels. The class given is cell-based. As for the experimental part: (§1) Mouse fibroblasts deficient in LRP (LRP−/−; PEA 13) and corresponding LRP expressing control cells (LRP±; PEA 10) were obtained from American Type Culture Collection (Rockville, Md., USA) and cultured as described previously (Kang et al., 2000). LRP deficient CHO cell line (13-5-1), CHO cell line expressing a LRP trafficking mutant (14-2-1), and corresponding CHO K1 control cells (kind gift of Dr. S. Leppla) were grown in alpha DMEM supplemented with 10% fetal bovine serum (FitzGerald et al., 1995). Human APP695 and APP751 were inserted into the pBabepuro retroviral expression vector (Morgenstern and Land, 1990) and transferred into GP+E86 packaging cell line. Stable transformants were selected with puromycin (5 μg/ml). After infection with recombinant viruses, mouse fibroblasts were selected with puromycin (2.5 μg/ml)and analyzed after clonal selection for equal APP expression. […] After infection with recombinant viruses, LRP−/− mouse fibroblasts were selected with hygromycin (2.5 μg/ml) and analyzed (LRP−/−CT). […]
(§2) For detection of intracellular proteins, cell extracts were prepared using an NP40 lysis buffer. […] Western blotting was carried out with the indicated antibodies and detected by enhanced chemiluminescence (Pierce). Quantitation of the chemiluminescence signal was carried out with a CCD camera imaging system (GeneGnome, Syngene, Frederick, Md.).

In another experiment the test system is APP-CTF. Description: APP-CTF levels by immunoblotting (CT15) after expression of LRP-CT constructs in LRP−/− fibroblasts. The class given is cell-based, mouse. Conditions: construct expressed in LRP−/− fibroblasts expressing APP751; compared to LRP± control cells. The procedure: as §1, §2
A further experiment addresses T1, APP (Homo sapiens, UniProt P05067).
T1 construct: expressed in transfected cells
Description: APP and LRP co-immunoprecipitation. The class given is binding. As to conditions: transfected cells.

The test system of the next experiment is APP internalization. Put plainly: Internalization of cell surface APP by iodinated 1G7 antibody at 37° C. The class given is cell-based, mouse. As to conditions: LRP-CT expressed in APP751 expressing LRP−/− cells; 30 min at 37° C.; compared to LRP± cells. As for the experimental part: To measure internalization of cell surface APP, iodinated 1G7 antibody was added to confluent cultures of LRP±, LRP−/−, or LRP−/−CT fibroblasts stably transfected with APP695 or APP751 at 37° C. for 30 min. After incubation, cells were rapidly chilled on ice, and the reaction was quenched by the addition of ice-cold binding medium. Chilled cells were extensively washed and remaining surface antibody was detached by two acid washes. The cells were then lysed and collected for analysis. Acid-labile and acid-resistant radioactivity represents the surface and internalized pools of APP, respectively. Specific binding was determined after subtraction of the radioactive counts obtained from parallel cultures of untransfected LRP± and LRP−/− fibroblasts. The ratio of acid-resistant to acid-labile counts therefore provided a measure of the internalized versus cell surface pools of APP. All experiments in this study were repeated one to three times. […]
RESULTS: An APP internalization assay was performed in LRP-deficient cells expressing either APP695 or APP751 using a protocol established in Inventors' laboratory in which iodinated APP monoclonal antibody (1G7) was added to cultured cells at 37° C. for 30 minutes [Koo E H and Squazzo S L. J. Biol. Chem. 269:17386-17389, 1994]. Internalized and cell surface APP can be rapidly determined by the acid resistant and acid labile pools, respectively. […]

The test system of a further experiment is APP processing. Put plainly: Restoration of APP processing in LRP deficient cells (summary statements). The class given is cell-based. As to conditions: construct expressed in LRP deficient cells.
Experiment [2] relates to Aβ secretion. Description: Aβ secretion, transient expression of LRP-CT in N2A mouse neuroblastoma cells. The class given is cell-based.
A further experiment has as its system APPs. Put plainly: APPs in medium by immunoprecipitation-western blotting, LRP−/− fibroblasts expressing LRP-CT constructs. The class given is cell-based, mouse. Conditions: construct expressed in LRP−/− fibroblasts expressing APP751; compared to LRP± control cells. As for the experimental part: as §1, §2
For experiment [3], the system named is Aβ secretion. Description: Aβ secretion, transient expression of LRP-CT in human glioma cells. The class given is cell-based.
The test system of the next experiment is Aβ. Description: Aβ ELISA of medium from LRP−/− fibroblasts expressing LRP-CT. Conditions: LRP-CT expressed in LRP−/− cells transfected with APP751; 72 hour collection; compared to LRP± cells. The class given is cell-based, mouse. As for the experimental part:
Media from LRP−/−, LRP± LRP−/−CT fibroblasts was collected after an incubation period of 72 hours in serum free IS-CHO medium. Debris was removed by centrifugation (13,000 rpm for 20 min) and the supernatants were subjected to Aβ40 quantification using a standard sandwich ELISA described previously (Kang et al., 2000).

Experiment [4] deals with Aβ secretion. Put plainly: Aβ secretion from APP751-expressing CHO cells transfected with LRP-CT. The class given is cell-based. Conditions: LRP-CT overexpressed in APP751-expressing CHO cells (LRP +/+).
In a further experiment the test system is cell surface APP. Description: Cell surface APP by iodinated 1G7 antibody at 4° C. Conditions: LRP-CT expressed in LRP−/− cells expressing APP751. The class given is cell-based, mouse. The procedure: To measure APP surface expression or internalization of surface APP, iodinated 1G7 monoclonal antibody was added to the cells in triplicate exactly as described previously (Koo et al., 1996). For the measurement of cell surface APP, the iodinated antibody was added to APP transfected LRP± and LRP−/− fibroblasts at 4° C. for 30 min followed by extensive washes. Specific binding was calculated after subtraction of the radioactivity obtained from parallel cultures of untransfected LRP± and LRP−/− fibroblasts, respectively. The radioactivity was then normalized to the rate of production of APP, which was determined in parallel cultures. The latter cells were metabolically labeled as described before and immunoprecipitated with polyclonal APP antibody to the C-terminus (CT15). Immunoprecipitates were subjected to SDS-PAGE, gels were dried and the APP signal was quantified by phosphor imaging.

“Also recorded” adds a separate entry of the source.

B1: LRP-CT: last 370 amino acids of the LRP β-subunit, transmembrane domain and entire cytoplasmic region, with signal peptide (protein)
chain: KRLDNGTCVPVPSPTPPPDAPRPGTCNLQCFNGGSCFLNARRQPKCRCQPRYTGDKCELDQCWEHCRNGGTCAASPSGMPTCRCPTGFTGPKCTQQVCAGYCANNSTCTVNQGNQPQCRCLPGFLGDRCQYRQCSGYCENFGTCQMAADGSRQCRCTAYFEGSRCEVNKCSRCLEGACVVNKQSGDVTCNCTDGRVAPSCLTCVGHCSNGGSCTMNSKMMPECQCPPHMTGPRCEEHVFSQQQPGHIASILIPLLLLLLLVLVAGVVFWYKRRVQGAKGFQHQRMTNGAMNVEIGNPTYKMYEGGEPDDVGGLLDADFALDPDKPTNFTNPVYATLYMGGHGSRHSLASTDEKRELLGRGPEDEIGDPLA
With B1, the “deficiencies in APP processing” value in experiment [1] is “able to restore the deficiencies in APP processing in LRP−/− CHO 13-5-1 cells to control levels”. Besides, the “levels of APP-CTF” value with APP-CTF is recorded as “restored to levels similar to LRP± cells; also recorded: restored to control levels; also recorded: can be restored; also recorded: restored to the level seen in LRP± cells”. Further, in the experiment with APP, the “co-immunoprecipitation with APP” value is “can not only co-IP APP with LRP, but also with LRP-CT; also recorded: APP complexes with LRP-CT”. Further, the “APP internalization from the cell surface” value with APP internalization is reported as “largely restored to control level; also recorded: restored to almost control levels; also recorded: can be restored; also recorded: similarly restored; also recorded: partially restored”. For the same molecule, the “APP processing steps altered in the absence of LRP” value in the experiment on APP processing is “can be restored; also recorded: partial to full restoration”. Besides, the results for the Aβ secretion result in the experiment with Aβ secretion [2], in the experiment with Aβ secretion [3] and with Aβ secretion [4] were “likewise reduced Aβ secretion”, “likewise reduced Aβ secretion” and “inhibited Aβ secretion; also recorded: dramatically inhibited; also recorded: reduce Aβ secretion in proportion to level of expression”, respectively. The “levels of APPs in medium (APPs secretion)” value with APPs is “restored the levels of APPs back to the levels seen in APP751 overexpressing cells; also recorded: restored to control levels; also recorded: restores the abnormal levels of APPs; also recorded: restored to normal levels; also recorded: can be restored”. In addition, in the experiment with Aβ, the “Aβ level in medium” value is reported as “restored to control level present in LRP± control cells; also recorded: restored the Aβ levels back to control conditions; also recorded: can be restored”. Moreover, the “amount of cell surface APP” value in the experiment with cell surface APP was “did not alter the amount of cell surface APP”.
